# According to the nanobody polyreactivity screen of Harvey et al. (2022):
# Experiment: yeast display, Sf9 membrane polyspecificity reagent, FACS + sequencing; frameworks hold sequencing errors
# In short: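 Using colony PCR, genes from sorted yeast display clones were amplified, then sequenced on MiSeq at 2 × 250 and filtered by CDR length. The clones had been stained with 10% biotinylated, detergent-solubilized Sf9 membrane reagent for 1 hour at 4 °C and sorted by FACS into low and high (top ~1%) gates on anti-HA and streptavidin fluorescence. Polyreactivity labels come from the gate of origin.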
row,Sequence,polyreactivity (PSR sort gate)
1,QVQLVESGGGLFQAGGSLRLSCAASGFTIFLNAMGWYRQAPGKERELVAAITVSGSSTYYADSVKGRFTISRDNAKNTVYLQMNSLKPEDTAVYYCNAEIYSPYYTYDYWGQGTQVTVSS,low polyreactivity
2,QVQLVESGGGLVQAGGSLRLSCAASGSPFVDNAMGWYRQAPGKEMELVAAIRDGSGGSTRYADSVKGRFTISRDNAKNTVYLQMHSLKPEVTAVYYCAADGYITVNYLRYDYWGQGTQVTVSS,low polyreactivity
3,QVQLVESGGGLVQAGGSLRLSCAASGRTFRKNTMGWYRQAPGKEREFVATISSRGGSTFYADSVKGRFTISRDNAKNTVYLQMNSLKPEDTAVYYCNAVYRYSLKPIYDYWGQGTQVTVSS,high polyreactivity
4,QVQLVESGGGLVQAGGSLRLSCAASGSTFNRYAMGWYRQAPGKERELVAAISLSGGSTYYADSVKGRFTISRDNAKNTVYLQMNSLKPEDTAVYYCAADIFYYSSSYGYWGQGTQVTVSS,low polyreactivity
5,QVQLVESGGGLVQAGGSLRLICAASGSIFRSYAMGWYRPAPGKERELVAAISSGGRTKYADSVKGRLTISRDNAKNTVYLQMNSLKPEDSAVYYCAARSVSATADFHYWGQGTQVTVSS,high polyreactivity
6,QVQLVESGGGLVQAGGSLRLICAASGRTFRYYAMGWYRQAPGKERELVAAISASGGSTFYADSVKGRFTISRDNAKNTVYLQMNSLKPEDTAVYYCAAYHYSVFPYKQYDYWGQGTQVTVSS,high polyreactivity
7,QVQLVESVGGLVQAGGILRLSCAASGSIFRSYAMGWYRQAPGKERELVAAIRSDGRTNYADSLKGRFTISRDNAKNTVYFPMNRLKPEDTAVYYCAAKAYYSYWRSMDYWGQGTQVTVSS,low polyreactivity
8,QVQLVESGGGLVQAGGSLRLSCPASGIIFHPYAMGWYRQAPGKERQLVAVITWPGDSTYYADSVKGRFTISRDNAKNTVYVQMNSLKPEDTAVYYCNVEAWGTSGELPYDYWGQGTQVTVSS,low polyreactivity
9,QDQLVESGGGLVQAGGSLRISCAASGRIFDYNAMGWYRQAPGKERELVAAITGGGNTTYADSVKGRFTISRDNAKNTVYLQMNSLKPEDTAVYYCAADVVSVYRLSYKPLGYYWGQGTQVTVSS,low polyreactivity
10,QVQLVESGGGLVQAGGSLRLSCAASGRTFLVYSMGWYIQAPGKERELVAAISFSDGITYYADSVKGRFTISRDNAKNTVYLQMNRLKPEDTAVYYCATEILDYYYGSEYDYWGQGTQVTVTS,high polyreactivity
11,QVQLVESGGGLVQAGGTLRLSCAASGFIFCTYAMGWSRQAPGKERELVAAISSRDVSTYYADSVKGRFTISRDNAKNTVYLQMNSLKPEDTAVYYCAAEDPYYYPYEYWGQGTQVTVSS,high polyreactivity
12,QVQLVESGGCLVQAGGSLRLSCAASGSIFTKYTMGWYRQAPGRERELVAAITLRGTSTYYADSVKGRFTISRDIAKNTVYLQMNSLKPEDTAVYYCNKLYSWVVAYDYWGQGTQVTVSS,high polyreactivity
13,QVQLVESGGGLVQAGGSLRLSCAASGSTLYPYDMGWYRQAPGKERELVAAIDSGGSTNYADSVKGRFTISRDNAKNTVYLQMNSLKPEDTAVYYCATEILTAARDTVVYQFYLGYYYWGQGTQVTVSS,low polyreactivity
14,QVQLVESAGGLVQAGGSLRLSCAASGFIFPTYAMGWYRQAPGKERELVAAITTGGGSTYYADSVKGRFTISRDNAKNTVYLQMNSLKPEDTAVYYCAAEYVAQAGYGEDYWGQGTQVTVSS,low polyreactivity
15,QVQQPESGGGLVQAGGSLRLSCAASGTIFQLTVMGRSRQAPGKERELVASIDYGGNPNYADSVKGRFTISRDNAKNTVYLQMNCLKPEDTAVYYCAASSDSWTTHPYWGQGTQVTVSS,low polyreactivity
16,QVQLVESGGGLDQAGGSLRLSCAASGITFYGYAMGWYRQAPGKEREFVAVITSTARTNYADSVKGRFTISRDNAKNTVYLQMNSLKPEDTAVYYCAARRVVRRDRYGSMDYWGQGTQVTVSS,high polyreactivity
17,QVQLVESGGGLVQAGGSLRLSCAASGYIFSSYAMGWYRQAPGKERELVAAISWTGGTYYADSVKGRFTISRDNAKNTVYLQMNSLKPEDTAVYYCAVRYKRKGSGYRTNAYDYWGQGTQVTVSS,high polyreactivity
18,QVQLVESGGGLLQAGGSLRLSCAASGRTFVYYAMGWYRPAPGKERELVAAITSSGSRTYYADSVKGRFTISRDNAKNTVYLQMNSLKPEDTAVYYCAADYVAHGDYRVLYDYWGQGTQVTVSS,low polyreactivity
19,QVQLVESGGGLVQAGGSLRLSCAASGGMGWYRQAPGKERELVATISSVGSTNYADSVKGRFTISRDNAKNTVYLQMNRLKPEDTAVYYCNATGVQYFLYGYWGQGTQVTVSS,low polyreactivity
20,QVQLVESGGGLVQAGGSLRLSCAASGFIFPVYTMGWSRQAPGKERELVGAITQIGGSTHYADSVKGRFSISRDNAKNTVYIQMNSLTPDDTAVYYCNAVPSYGTEYDYWGQGTHVTVSS,low polyreactivity
21,QVHLVESGGGLVQAGGSLRLSCAASGIIFPSYVMGWYRQAPGKEWELVARISARGGRTYYADSVKGRFTISRDNAKNTVYLQMNSLKPEDTAVYYCAARWGITTWYDYWGQGTQVTVSS,high polyreactivity
22,QVQLVESVGGLVQAGGSLRLSCAASGYIFGHYTMRWYRQAPGKERELVAGISSGGITYYADSVKGRFTISRDNAKNTVYLQMNSLKPEDTAVYYCAVGTRVKYDYWGQGTQVTVSS,high polyreactivity
23,QVQLVESGGGLVQAGGSLRLSCAASGRMGWYRQAPGKERELVAAITSGDRTNYADSVKGRFTISRDNAKNTVYLQMNSLKREDTAVYYCATEPSWYHGFIDPRGYWGQGTQVTVSS,low polyreactivity
24,QVQLVESGGGLVQAGGSLRLSCAASGRILYGNAMGWYRQAPGKERELVAAIDTSGGSTYYADSVKGRFTISRDNAKNTVYLQMNSLKPEDTAVYYCAVRAYREFLPIVYKWWWERDHWGQGTQVTVSS,low polyreactivity
25,QVQLVESGGGLVQAGGSLRLSCAASGYIIWSYAMGWYRQAPGKERELVAGISYSGGSTYYADSVKGRFTISRDNAKNTVYLQMNSLKPEDTAVFYCAALRRGYVPFGYWGQGTQVTVSS,high polyreactivity
26,QVQLVESGGGLVQAGGSLRLSCAASGITFDDYDMGWYIQAPGKEREFVAAISFSGSSTYYADSVKGRFTISRDNAKNTVYLQMNSLKPEDTAVYYCAAVTTGTITSKYNYWGQGTQVTVSS,low polyreactivity
27,QVQLVESGGRLVQAGGSLRLSCAASGRIFVVNAMGWYRQAPGKERELVAAIDRSGGSTYYADSVKGRFTISRDNAKNTVYLQMNSLKPEDTAVYYCNTGRRYYSYRRDYWGQGTQVTVSS,high polyreactivity
28,QVQLVESGGGLVQAGGSLRLSCAASVSIFGYYAMGWYRPAPGKEMELVAAISSGGNTNYADSVKGRFTISRDNAKNTVYLQMISLKQEDTAVYYCATRARYKRIRYDYWGQGTQVTVSS,high polyreactivity
29,QDQLVESGGGLVQAGGSLRLSSAASGSTFDSNAMAWYRQAPGKERELVAAISSSGGRTSYADSVKGRFTISRDNAKNTVYLQMNSLKPEDTAVYYCADRFKSVDYVQYYYWGQGTQVTVSS,low polyreactivity
30,QVQLVESGGGLVQAGGSLRLSCAASGRIFFDYAMGWYRQAPGKERELGADISYNGGSTNYADSVKGRFTISRDNAKNTVYLQMISLKPEDTAVYYCNRALVPVYDLDYYWGQGTQVTVSS,low polyreactivity
